{
  "source": "paper PMC2710984",
  "note": "Ends that are not written are not given here.",
  "data": [
    {"target": "GST–BIR3 fusion protein (XIAP BIR3 domain)", "test": "FMAT bead-based fluorescence competition assay", "units": {"IC50": "nM"}, "values": [
      {"binder": "SVPF-NH2", "note": "[SVPF (compound 10)]", "IC50": 1000},
      {"binder": "ALPF-NH2", "note": "[ALPF (compound 15)]", "IC50": 180},
      {"binder": "AIPF-NH2", "note": "[AIPF (compound 16)]", "IC50": 80},
      {"binder": "ATPF-NH2", "note": "[ATPF (compound 17)]", "IC50": 200},
      {"binder": "AVPIAQK-NH2", "note": "[Smac 7-mer peptide AVPIAQK (compound 1)]", "IC50": 390},
      {"binder": "AVPIAQ-NH2", "note": "[Smac 6-mer peptide AVPIAQ (compound 2)]", "IC50": 270},
      {"binder": "AVPIA-NH2", "note": "[Smac 5-mer peptide AVPIA (compound 3)]", "IC50": 300},
      {"binder": "AIAY-NH2", "note": "[Grim 4-mer peptide AIAY (compound 8)]", "IC50": 340}
    ]}
  ]
}
